In paper PMC4455283, “Crystal structure of TRIM20 C-terminal coiled-coil/B30.2 fragment: implications for the recognition of higher order oligomers” (Scientific Reports, 2015):

How the values were obtained:
pro-interleukin-1β = target: T1, pro-interleukin-1β (UniProt P01584 1-269); assay: SPR; TRIM20Δ413 and pro-IL-1β; heterogeneous ligand model; apparent dissociation constants; immobilised partner not told in the text shown; details: both partners purified
T1 construct: pro-interleukin-1β (uncleaved precursor of IL-1β); Printed mass 31.9 kDa; The FLAG tag is named for the co-immunoprecipitation; also called pro-IL-1β; FLAG-tagged pro-IL-1β; source: purified

[1] = target: the molecule itself; assay: AUC; sedimentation velocity analytical ultracentrifugation at 4 °C

B1: TRIM20Δ413 (TRIM20 coiled-coil/B30.2 fragment) (domain or fragment, human, UniProt O15553 414-781, looked up)
chain: EVALEHKKKIQKQLEHLKKLRKSGEEQRSYGEEKAVSFLKQTEALKQRVQRKLEQVYYFLEQQEHFFVASLEDVGQMVGQIRKAYDTRVSQDIALLDALIGELEAKECQSEWELLQDIGDILHRAKTVPVPEKWTTPQEIKQKIQLLHQKSEFVEKSTKYFSETLRSEMEMFNVPELIGAQAHAVNVILDAETAYPNLIFSDDLKSVRLGNKWERLPDGPQRFDSCIIVLGSPSFLSGRRYWEVEVGDKTAWILGACKTSISRKGNMTLSPENGYWVVIMMKENEYQASSVPPTRLLIKEPPKRVGIFVDYRVGSISFYNVTARSHIYTFASCSFSGPLQPIFSPGTRDGGKNTAPLTICPVGGQGPD
notes: TRIM20 (pyrin, marenostrin), human, UniProt O15553; construct starting with E414, comprising the CHS (coiled-coil, E414-N586) and B30.2 (E589-G776) domains; Calculated monomer mass printed as 42 737 Da (85.7 kDa dimer); also called CHS-B30.2; TRIM20 C-terminal coiled-coil/B30.2 fragment; source: purified
- apparent KD, heterogeneous ligand model, first constant (pro-interleukin-1β): 0.7 µM
- apparent KD, heterogeneous ligand model, second constant (pro-interleukin-1β): 13.7 µM
- stoichiometry N [1]: 2
